Laboratory results published in patent US20030165511A1.

Molecular target: bacteriophage P2 of Lactococcus lactis
Test: cell-based or functional assay

B1: VHH#1 (VHH)
VHH: QVQLQESGGGLVQAGGSLRLSCTASRRTGSNWCMGWFRQLAGKEPELVVALNFDYDMTYYADSVKGRFTVSRDSGKNTVYLQMNSLKPEDTAIYYCAARSGGFSSNRELYDGWGQGTQVTVSS
neutralisation in microtiter acidification assay (lowest effective concentration): 47 ng/mL
reduction in the phage titre (plaque titration on L. lactis LM0230): > 99%
